Results on two molecules are retold here after patent US20190271710A1 (Janssen / Centocor, published 2019).

Experiment [1] addresses T1, calibrant peptide pT3xhT43 (two phosphothreonines (pT) in GSRSR(pT)PSLP(pT)PPTREPKKV; dPEG4 linkers between the three segments; C-terminal amide).
T1 construct: Molecular weight 6893 g/mol
T1 peptide: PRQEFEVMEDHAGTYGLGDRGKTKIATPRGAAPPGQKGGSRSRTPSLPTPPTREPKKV
Briefly: Simoa pT3xhT43 sandwich assay, calibrant titrated 30 to 0.041 pg/ml. On the procedure:
(§1) The calibrant peptides were reconstituted to 5 mg/ml in 0.1% phosphoric acid/water, aliquoted to 20 ul and frozen. When ready for use, the calibrant peptide aliquots were thawed and diluted 1:1000 (e.g. 1.5 ul into 1498.5 ul), and the dilutions were diluted […] so that the final concentration of the peptides was 5000 pg/ml. A standard curve with 3× jumps was made, starting at 30 pg/ml.
(§2) Calibrant peptides described in Example 1 were produced. The calibrant peptides contained the core epitopes of pT3 and hT43, or pT3 and pT82 separated by PEG4 linkers, and they were used to generate standard curves. Calibrant peptides were titrated from 30 pg/ml to 0.041 pg/ml in 1:3 jumps in assay buffer and measured with the pT3xhT43 and pT3xpT82 assays. A 4-parameter curve fit data reduction method (4PL, 1/y2 weighted) was used to generate the calibration curve. The lower limit of detection (LLOD) was defined as the calculated calibrant level yielding an AEB equal to the average of the zero calibrator+2.5 standard deviations (SD), including 10% coefficient of variation (CV). With these criteria, the representative data yielded an LLOD of 0.002 pg/ml. The Linear Range of the assay, lower limit of quantification (LLOQ) and upper limit of quantification (ULOQ), was defined as the lowest and highest standard curve points achieving CV<20% and recovery 80-120% of expected. […]

The target of experiment [2] is T2, calibrant peptide pT3xpT82 (N-terminal acetyl; dPEG4 linker between the two segments; two phosphothreonines (pT) in GSRSR(pT)PSLP(pT)PPTREPKKV; C-terminal amide).
T2 construct: Molecular weight 4551 g/mol
T2 peptide: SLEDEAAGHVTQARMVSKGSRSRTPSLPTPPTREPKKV
The experiment in a line: Simoa pT3xpT82 sandwich assay, calibrant titrated 30 to 0.041 pg/ml. As for the experimental part:
as §1, §2

B1: pT3 mouse monoclonal antibody (antibody, V domains shown)
VH: EVKLVESGGDLVKPGGSLKLSCAASGFTFSSYAMSWVRQNPEKRLEWVASISKGGNTYYPNSVKGRFTISRDNARNILYLQMSSLRSEDTALYYCARGWGDYGWFAYWGQVTLVTVSA
VL: DIKMTQSPSSMYASLGERVTITCKASQDINRYLNWFQQKPGKSPKTLIYRANRLLDGVPSRFSGSGSGQDYSLTISSLDYEDMGIYYCLQYDEFPLTFGDGTKLELK
notes: Parental mouse mAb expressed by a mouse hybridoma; Used on capture beads, and as soluble antibody in spiking experiments; also called pT3 mAb
As to B1, in experiment [1], the binding result is recorded as “binds”.

B2: pT82 mAb (antibody, V domains shown)
VH: EVKLEESGGGLVQPGGSMKLSCVASGFTFSNYWMNWIRQSPEKGLEWVAQIRLQSDNYATRYAESVKGRFTISRDESKTSVYLQMNNLRTEDTGIYYCTGGTTYWGQGTLVTVSA
VL: DIVMTQSQKFMSTSVGDRVSITCKASQNVGTAVAWYQQKPGQSPKLLIYSASIRYTGVPDRFTGSGSGTDFTLTINYMQSEDLADYFCQQFSSYPYTFGGGTKLEIK
notes: The majority assignment is used
Regarding B2, the binding result in experiment [2] is listed as “binds”.
